Source: patent publication US20250152729A1 (CANCER RESEARCH TECHNOLOGY, published 2025)
Residue numbers refer to the chain shown, from its start. Names and notes keep the numbering of the source. Read-outs that look alike come from different tables or passages of the source.

T1: human SEMA4B expressed on expi293 cells (human, UniProt Q9NPR2 44-837)
T1 construct: whole, on cells
T1 sequence (looked up): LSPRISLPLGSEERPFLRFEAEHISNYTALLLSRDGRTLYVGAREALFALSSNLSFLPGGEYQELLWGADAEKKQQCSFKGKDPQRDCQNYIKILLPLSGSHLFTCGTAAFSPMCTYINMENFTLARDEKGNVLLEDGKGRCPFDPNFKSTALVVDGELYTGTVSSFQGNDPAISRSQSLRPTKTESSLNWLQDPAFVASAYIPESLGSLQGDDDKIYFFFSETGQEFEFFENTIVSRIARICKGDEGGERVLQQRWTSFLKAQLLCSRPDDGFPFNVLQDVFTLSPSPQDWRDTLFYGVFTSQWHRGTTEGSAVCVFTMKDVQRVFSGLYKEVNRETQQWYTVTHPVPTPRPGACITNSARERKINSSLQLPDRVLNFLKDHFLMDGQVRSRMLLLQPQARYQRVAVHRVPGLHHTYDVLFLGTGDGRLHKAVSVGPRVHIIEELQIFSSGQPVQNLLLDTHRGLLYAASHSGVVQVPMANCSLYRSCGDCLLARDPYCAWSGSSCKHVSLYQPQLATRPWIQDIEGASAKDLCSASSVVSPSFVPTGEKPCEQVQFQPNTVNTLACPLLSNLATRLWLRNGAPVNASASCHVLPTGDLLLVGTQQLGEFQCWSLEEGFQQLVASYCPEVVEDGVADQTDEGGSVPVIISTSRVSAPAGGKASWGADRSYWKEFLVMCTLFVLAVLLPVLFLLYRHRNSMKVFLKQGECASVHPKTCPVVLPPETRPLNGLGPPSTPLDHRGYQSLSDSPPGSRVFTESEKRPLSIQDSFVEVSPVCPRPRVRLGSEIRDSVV

T2: human SEMA4A expressed on cells (UniProt ID Q9H3S1, isoform 1) (human, UniProt Q9H3S1 33-761)
T2 sequence: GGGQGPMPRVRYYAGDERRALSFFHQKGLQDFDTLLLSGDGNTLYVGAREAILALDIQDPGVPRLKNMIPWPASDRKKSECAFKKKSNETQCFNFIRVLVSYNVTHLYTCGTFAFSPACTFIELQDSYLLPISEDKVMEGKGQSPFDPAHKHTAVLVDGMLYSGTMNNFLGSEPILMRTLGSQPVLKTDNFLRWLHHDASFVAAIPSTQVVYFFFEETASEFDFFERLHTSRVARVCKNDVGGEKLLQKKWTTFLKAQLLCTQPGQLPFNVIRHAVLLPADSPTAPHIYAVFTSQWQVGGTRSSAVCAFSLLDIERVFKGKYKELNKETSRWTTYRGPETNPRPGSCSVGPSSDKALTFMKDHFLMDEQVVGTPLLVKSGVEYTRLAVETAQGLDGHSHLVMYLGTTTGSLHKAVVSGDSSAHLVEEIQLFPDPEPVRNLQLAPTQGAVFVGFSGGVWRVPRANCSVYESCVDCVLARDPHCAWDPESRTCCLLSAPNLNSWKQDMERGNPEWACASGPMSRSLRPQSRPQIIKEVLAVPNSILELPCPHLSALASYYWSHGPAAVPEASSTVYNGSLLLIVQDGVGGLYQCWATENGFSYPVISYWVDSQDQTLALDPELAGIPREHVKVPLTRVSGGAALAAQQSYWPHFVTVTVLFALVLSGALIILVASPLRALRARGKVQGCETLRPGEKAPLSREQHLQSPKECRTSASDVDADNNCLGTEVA

T3: mouse SEMA4A expressed on expi293 cells (UniProt ID Q62178) (mouse, UniProt Q62178 33-760)
T3 construct: Transient transfection in expi293 cells
T3 sequence: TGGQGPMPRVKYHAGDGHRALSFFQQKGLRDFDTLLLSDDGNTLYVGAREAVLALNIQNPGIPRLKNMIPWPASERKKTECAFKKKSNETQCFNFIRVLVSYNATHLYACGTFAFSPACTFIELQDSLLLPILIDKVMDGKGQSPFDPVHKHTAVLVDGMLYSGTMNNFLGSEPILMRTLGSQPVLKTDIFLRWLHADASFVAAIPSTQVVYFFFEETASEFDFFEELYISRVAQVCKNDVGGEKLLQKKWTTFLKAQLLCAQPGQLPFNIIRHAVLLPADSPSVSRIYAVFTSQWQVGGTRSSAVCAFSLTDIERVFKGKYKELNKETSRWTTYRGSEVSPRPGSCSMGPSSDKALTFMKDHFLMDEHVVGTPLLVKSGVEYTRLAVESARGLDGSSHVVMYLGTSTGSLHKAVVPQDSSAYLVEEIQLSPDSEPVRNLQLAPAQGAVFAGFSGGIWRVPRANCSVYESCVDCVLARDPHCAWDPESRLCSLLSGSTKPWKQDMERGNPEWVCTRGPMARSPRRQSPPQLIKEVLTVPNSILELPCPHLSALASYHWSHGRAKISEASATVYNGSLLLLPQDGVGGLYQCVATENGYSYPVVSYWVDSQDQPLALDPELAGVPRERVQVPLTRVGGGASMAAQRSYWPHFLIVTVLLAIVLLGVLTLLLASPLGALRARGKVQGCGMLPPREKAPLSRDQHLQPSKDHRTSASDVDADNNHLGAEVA

B1: C0120904 human Alya IgG1 conjugated to McMMAF (antibody, V domains shown)
VH: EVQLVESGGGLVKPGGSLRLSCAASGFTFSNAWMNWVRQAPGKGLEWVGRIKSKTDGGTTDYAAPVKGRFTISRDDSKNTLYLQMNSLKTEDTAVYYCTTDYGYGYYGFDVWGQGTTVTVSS
VL: SYELTQPPSVSVSPGQTATISCSGNKLGDGYVSWYQQKPGQSPVLVIYQDSKRPSGIPQRYSGSNSGNTATLTISGTQAIDEADYYCQAWDSSTVVFGGGTKVTVL
modifications: McMMAF on the engineered cysteines 239iCys and S442C (EU numbering) of the heavy constant region
notes: Antibody-drug conjugate; human IgG1 Alya constant
B2: C0120904 (antibody, V domains shown)
VH: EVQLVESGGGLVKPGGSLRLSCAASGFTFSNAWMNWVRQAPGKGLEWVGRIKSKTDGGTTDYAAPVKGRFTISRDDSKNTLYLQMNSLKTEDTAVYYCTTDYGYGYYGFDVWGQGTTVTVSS
VL: B1 VL
modifications: 239iCys and S442C (EU numbering) in the constant region
notes: purified, unconjugated; also called C0120904 human Alya IgG1 (unconjugated)
B3: C0120910 human Alya IgG1 conjugated to McMMAF (antibody, V domains shown)
VH: QVQLVESGGGVVQPGRSLRLSCEASEFTFSNYAMHWVRQAPDKGLEWVAGILYDGATAHYADSVKGRFTISRDNSKNTLYLQINSLRAEDTAVYYCARAHYYDYWSGLSFEYWGRGTLVTVSS
VL: QSVLTQPPSASVSPGQTASIPCSGDDLGDKYIYWYQQKPGQSPVLVIYQDSRRPPGIPERFSGSNSGNTATLTISGTQPMDEADYYCQTWDTSSASAVFGGGTKVTVL
modifications: McMMAF on the engineered cysteines 239iCys and S442C (EU numbering) of the heavy constant region
notes: as for B1
B4: C0120910 (antibody, V domains shown)
VH: B3 VH
VL: B3 VL
modifications: 239iCys and S442C (EU numbering) in the constant region
notes: purified, unconjugated; also called C0120910 human Alya IgG1 (unconjugated)
B5: C0120919 (antibody, V domains shown)
VH: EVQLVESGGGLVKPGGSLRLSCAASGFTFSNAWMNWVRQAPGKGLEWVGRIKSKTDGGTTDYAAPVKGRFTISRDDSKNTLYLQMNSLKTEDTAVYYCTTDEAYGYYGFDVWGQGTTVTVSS
VL: QSALTQPPSVSVSSGQTASITCSGDKLGDKYASWYQQKPGQSPVLVIYQDTKRPSEIPERFSGSNSGNTATLTISGTQAMDEADYYCQAWDSSLVFGGGTKVTVL
modifications: 239iCys and S442C (EU numbering) in the constant region
notes: purified, unconjugated; also called C0120919 human Alya IgG1 (unconjugated)
B6: C0120913 (antibody, V domains shown)
VH: QVQLVQSGAEVKKPGESLKISCKGSGYSFTSYWVGWVRQMPGKGLEWMGIIYPGDSDARYGPSFQGQVTISADKSINTAYLQWNSLKASDTATYYCARLGDGAYYYYLDVWGRGTMVTVSS
VL: SYELTQPPSVSESPGRTVTISCSGSSGSIASNFVHWYQQRPGSAPTTVIYEDDQRPSGVPDRFSGSIDSSSNSASLTISGLKTEDEADYYCQSYDNNDHAVFGGGTKLTVL
modifications: 239iCys and S442C (EU numbering) in the constant region
notes: purified, unconjugated; also called C0120913 human Alya IgG1 (unconjugated)
B7: 5Hg1-5Lg2 human Alya IgG1 conjugated to McMMAF (antibody, V domains shown)
VH: QVQLVQSGAEVKKPGASVKVSCKASGYTFTDYWMHWVRQAPGQGLEWMGAIDTSDSYTSYNQKFKGRVTMTRDTSTSTVYMELSSLRSEDTAVYYCARDYGNFYYYAMDYWGQGTLVTVSS
VL: QAVVTQEPSLTVSPGGTVTLTCRSSTGAVTTSNYANWFQQKPGQAPRTLIYGTNNRAPWTPARFSGSLLGGKAALTLLGAQPEDEAEYYCALWYSNHWVFGGGTKLTVL
modifications: McMMAF on the engineered cysteines 239iCys and S442C (EU numbering) of the heavy constant region
notes: as for B1
B8: 5Hg2-5Lg3 human Alya IgG1 conjugated to McMMAF (antibody, V domains shown)
VH: B7 VH with G44R, M70I, T76A, V79A
VL: QTVVTQEPSFSVSPGGTVTLTCRSSTGAVTTSNYANWYQQTPGQAPRTLIYGTNNRAPGVPDRFSGSILGNKAALTITGAQADDESDYYCALWYSNHWVFGGGTKLTVL
modifications: McMMAF on the engineered cysteines 239iCys and S442C (EU numbering) of the heavy constant region
notes: as for B1
B9: 5Hg2-5Lg1 human Alya IgG1 conjugated to McMMAF (antibody, V domains shown)
VH: B7 VH with G44R, M70I, T76A, V79A
VL: B7 VL with L78S
modifications: McMMAF on the engineered cysteines 239iCys and S442C (EU numbering) of the heavy constant region
notes: as for B1

Tests used:
[1] = biological target: T1, human SEMA4B expressed on expi293 cells; experiment: Mirrorball direct binding, dilution series on expi293 cells transiently transfected with human SEMA4B, anti-human Alexa Fluor 647
Procedure: To determine the specificity profile of each purified human Alya IgG1 conjugated to McMMAF, a dilution series was tested for binding to human SEMA4A, human SEMA4B and mock transfected cells (transient transfections set up in expi 293 cells.) The three assays employed methods described in section 2.3, using the appropriate cells and substituting the un-purified scFv periplasmic preparation with the human Alya IgG1 conjugated to McMMAF. Data was analysed as Count x median mean intensity (x FLU).

[2] = biological target: T2, human SEMA4A expressed on cells …; experiment: cell-based or functional assay
[3] = biological target: T3, mouse SEMA4A expressed on expi293 cells …; experiment: Mirrorball direct binding, dilution series on expi293 cells transiently transfected with mouse SEMA4A, anti-human Alexa Fluor 647
From the text: (§1) Hits from the primary screening were re-formatted into the human Alya IgG1 vector and re-expressed and purified as described in section 4.1. In addition, a single clone was identified that contained an Asparagine deamidation motif (Asn Gly) within its VHCDR2. This potential sequence liability was de-risked by synthesising de novo two clonal variant VH genes (Asn Ala and Gln Gly) and cloning these sequences into the human Alya IgG1 expression vector. To determine the specificity profile of each purified human Alya IgG1, a dilution series was tested for binding to human SEMA4A, mouse SEMA4A, cyno SEMA4A, human SEMA4B and mock transfected cells (transient transfections set up in expi 293 cells.) The five assays employed methods described in section 2.3, using the appropriate cells and substituting the un-purified scFv periplasmic preparation with the recombinant human Alya IgG1 dilution series. Data was analysed as Count x median mean intensity (x FLU).

[4] = biological target: T1, human SEMA4B expressed on expi293 cells; experiment: Mirrorball direct binding, dilution series on expi293 cells transiently transfected with human SEMA4B, anti-human Alexa Fluor 647; remark: listed apart in the source
From the text: as §1

[5] = biological target: T2, human SEMA4A expressed on cells …; experiment: cell-based or functional assay; remark: listed apart in the source
[6] = biological target: T2, human SEMA4A expressed on cells …; experiment: cell-based or functional assay; remark: listed apart in the source

| Binder | binding result [1] | binding result [3] | Average KARPAS 25 IC50 [pM], cell kill [6] [pM] | Average MM1.S IC50 [pM], cell kill [6] [pM] | Average NCI-H929 IC50 [pM], cell kill [6] [pM] | other results |
| --- | --- | --- | --- | --- | --- | --- |
| B1 | no binding (tested: log (M) -8 (1e-8 M)) | – | – | – | – | Average MM1.S IC50 [pM], cell kill [2]: 1490 pM; Average NCI-H929 IC50 [pM], cell kill [2]: 18100 pM |
| B2 | – | binds | – | – | – | binding result [4]: no binding (tested: log (M) -8 (1e-8 M)) |
| B3 | no binding (tested: log (M) -8 (1e-8 M)) | – | – | – | – | Average MM1.S IC50 [pM], cell kill [2]: 7490 pM; Average NCI-H929 IC50 [pM], cell kill [2]: 3990 pM |
| B4 | – | binds | – | – | – | – |
| B5 | – | binds | – | – | – | binding result [4]: no binding (tested: log (M) -8 (1e-8 M)) |
| B6 | – | binds | – | – | – | – |
| B7 | no binding (tested: log (M) -8 (1e-8 M)) | – | 317 | 15.8 | 59.4 | EC50 (nM), Fab-pHast internalisation into NCI-H929 [5]: 0.75 nM; Fold-Change at 6 hours (10 nM), Fab-pHast internalisation [5]: 150 fold |
| B8 | no binding (tested: log (M) -8 (1e-8 M)) | – | 316 | 102 | 863 | – |
| B9 | no binding (tested: log (M) -8 (1e-8 M)) | – | 228 | 11.8 | 33.6 | EC50 (nM), Fab-pHast internalisation into NCI-H929 [5]: 0.62 nM; Fold-Change at 6 hours (10 nM), Fab-pHast internalisation [5]: 144 fold |
